Patent publication CN113840601A (dated 2021)

What was measured:
小鼠EGFR (mouse EGFR) = molecular target: T1, 小鼠EGFR (mouse EGFR) (mouse, UniProt Q01279 25-1210, limits assumed); experiment: not described; stated in the results of the xenograft example as the reason why tolerability could not be assessed
T1 construct: Endogenous mouse protein in the host animals; no construct described

小鼠c-Met (mouse c-Met) = molecular target: T2, 小鼠c-Met (mouse c-Met) (mouse, UniProt P16056 25-1379, limits assumed); experiment: as above
T2 construct: Endogenous mouse protein in the host animals; no construct described
T2 sequence (P16056 25-1379 limits assumed): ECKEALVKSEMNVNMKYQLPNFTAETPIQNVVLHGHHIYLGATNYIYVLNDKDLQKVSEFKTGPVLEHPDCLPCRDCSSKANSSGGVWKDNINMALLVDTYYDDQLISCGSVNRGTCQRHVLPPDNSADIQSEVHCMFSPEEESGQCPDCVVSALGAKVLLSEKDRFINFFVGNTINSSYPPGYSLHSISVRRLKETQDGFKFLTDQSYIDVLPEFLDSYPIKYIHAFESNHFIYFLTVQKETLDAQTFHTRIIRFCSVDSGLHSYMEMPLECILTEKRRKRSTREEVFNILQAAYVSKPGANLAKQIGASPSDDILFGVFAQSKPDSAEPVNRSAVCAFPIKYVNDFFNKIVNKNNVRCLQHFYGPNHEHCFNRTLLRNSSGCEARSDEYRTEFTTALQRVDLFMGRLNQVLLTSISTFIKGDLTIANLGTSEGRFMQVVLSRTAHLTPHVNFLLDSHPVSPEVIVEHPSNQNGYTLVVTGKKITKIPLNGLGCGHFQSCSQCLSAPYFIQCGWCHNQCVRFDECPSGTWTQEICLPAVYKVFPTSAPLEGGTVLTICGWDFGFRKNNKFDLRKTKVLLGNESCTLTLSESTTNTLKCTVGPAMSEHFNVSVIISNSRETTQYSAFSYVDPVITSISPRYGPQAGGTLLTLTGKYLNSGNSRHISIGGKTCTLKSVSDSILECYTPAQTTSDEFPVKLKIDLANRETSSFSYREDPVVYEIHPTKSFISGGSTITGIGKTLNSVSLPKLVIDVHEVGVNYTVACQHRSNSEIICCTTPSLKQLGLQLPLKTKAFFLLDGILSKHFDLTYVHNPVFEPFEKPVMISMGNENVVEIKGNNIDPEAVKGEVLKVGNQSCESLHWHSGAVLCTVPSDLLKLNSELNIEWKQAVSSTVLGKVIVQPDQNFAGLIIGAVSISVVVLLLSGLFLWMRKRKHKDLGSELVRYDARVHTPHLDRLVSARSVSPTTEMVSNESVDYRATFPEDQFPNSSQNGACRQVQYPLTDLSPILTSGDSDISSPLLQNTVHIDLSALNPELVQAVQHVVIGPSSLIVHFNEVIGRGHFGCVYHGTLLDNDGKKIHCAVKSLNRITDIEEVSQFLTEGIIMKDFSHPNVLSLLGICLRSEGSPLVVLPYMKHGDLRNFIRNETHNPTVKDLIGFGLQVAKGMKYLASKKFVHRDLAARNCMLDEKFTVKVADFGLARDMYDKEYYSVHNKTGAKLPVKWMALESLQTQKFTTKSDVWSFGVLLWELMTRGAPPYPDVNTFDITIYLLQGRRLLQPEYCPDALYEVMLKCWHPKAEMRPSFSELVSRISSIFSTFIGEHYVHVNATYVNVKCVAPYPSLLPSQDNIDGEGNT

B1: JNJ-61186372 (bispecific antibody, human IgG1, kappa)
heavy 1: not shown
light 1: not shown
heavy 2: not shown
light 2: DIQMTQSPSSVSASVGDRVTITCRASQGISNWLAWFQHKPGKAPKLLIYAASSLLSGVPSRFSGSGSGTDFTLTISSLQPEDFATYYCQQANSFPITFGQGTRLEIKRTVAAPSVFIFPPSDEQLKSGTASVVCLLNNFYPREAKVQWKVDNALQSGNSQESVTEQDSKDSTYSLSSTLTLSKADYEKHKVYACEVTHQGLSSPVTKSFNRGEC
notes: also called CNTO4424
小鼠EGFR (mouse EGFR)
  binding result: no binding
小鼠c-Met (mouse c-Met)
  binding result: no binding
